Test results published in US8202696 (MAX PLANCK GESELLSCHAFT ZUR FORDERUNG DER WISSENSCHAFTEN E V, dated 2012).

T1: endogenous α4 of the transfected human cell lines (HeLa, U373MG) (UniProt P78318 2-339)
T1 sequence (looked up): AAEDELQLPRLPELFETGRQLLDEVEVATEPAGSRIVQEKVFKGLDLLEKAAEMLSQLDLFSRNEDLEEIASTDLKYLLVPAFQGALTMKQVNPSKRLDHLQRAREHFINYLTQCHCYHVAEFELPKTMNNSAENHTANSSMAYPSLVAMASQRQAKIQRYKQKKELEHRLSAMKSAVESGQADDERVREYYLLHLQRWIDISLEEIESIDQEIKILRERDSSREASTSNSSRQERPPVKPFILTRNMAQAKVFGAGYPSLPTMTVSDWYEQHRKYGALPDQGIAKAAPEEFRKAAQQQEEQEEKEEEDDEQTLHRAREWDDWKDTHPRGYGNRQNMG

B1: α4 protein, full-length, in the yeast two-hybrid system (other, human, UniProt P78318 2-339, looked up)
chain: T1 sequence (looked up)
notes: mature; also called alpha4; IGBP1 gene product; not shown: two-hybrid fusion partner
B2: MID1 B-box 1 (residues 110-165), yeast two-hybrid bait (other)
chain: TMTSAEKVLCQFCDQDPAQDAVKTCVTCEVSYCDECLKATHPNKKPFTGHRLIEPI
notes: also called BB1; isolated B-Box1; not shown: two-hybrid fusion partner; not described
B3: myc-tagged B-box 1 of the MID1 protein (peptide, not shown: small tags and cut ends)
peptide: TMTSAEKVLCQFCDQDPAQDAVKTCVTCEVSYCDECLKATHPNKKPFTGHRLIEPIPD
B4: small part of α4 (44 amino acids), yeast two-hybrid deletion construct (peptide)
peptide: ERPPVKPFILTRNMAQAKVFGAGYPSLPTMTVSDWYEQHRKYGA
notes: The range 236-279 is inferred from the equal length of 44 residues; also called peptidic fragment of α4

Legend:
HHARI = biological target: T2, HHARI (UniProt Q9Y4X5 1-557, limits assumed); assay: yeast two-hybrid, growth on his- leu- trp- plate
T2 construct: Two-hybrid fusion protein; fusion partner not described

PARKIN = biological target: T3, PARKIN (UniProt O60260 1-465, limits assumed); assay: yeast two-hybrid, growth on his- leu- trp- plate
T3 construct: Two-hybrid fusion protein; fusion partner not described

[1] = biological target: B1; assay: yeast two-hybrid, comparison of the α4-affinities of MID1 peptides
[2] = biological target: T1, endogenous α4 of the transfected human …; assay: cell-based or functional assay
[3] = biological target: B2; assay: yeast two-hybrid, deletion studies with α4 (preliminary data)

T3 sequence (O60260 whole entry, the tested form may be a part): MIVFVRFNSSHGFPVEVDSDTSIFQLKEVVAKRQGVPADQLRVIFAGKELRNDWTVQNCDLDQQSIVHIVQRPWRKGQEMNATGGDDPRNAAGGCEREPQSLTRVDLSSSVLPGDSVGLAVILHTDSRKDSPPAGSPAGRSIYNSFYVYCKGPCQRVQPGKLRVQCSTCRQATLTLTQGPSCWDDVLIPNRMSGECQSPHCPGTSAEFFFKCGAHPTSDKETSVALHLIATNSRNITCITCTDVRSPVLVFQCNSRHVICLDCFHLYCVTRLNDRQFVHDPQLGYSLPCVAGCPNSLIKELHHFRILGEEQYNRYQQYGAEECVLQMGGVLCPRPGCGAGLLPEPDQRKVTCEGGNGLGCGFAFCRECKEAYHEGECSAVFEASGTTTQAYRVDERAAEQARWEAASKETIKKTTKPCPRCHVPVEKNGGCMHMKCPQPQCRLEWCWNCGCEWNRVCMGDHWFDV
T2 sequence (Q9Y4X5 whole entry, the tested form may be a part): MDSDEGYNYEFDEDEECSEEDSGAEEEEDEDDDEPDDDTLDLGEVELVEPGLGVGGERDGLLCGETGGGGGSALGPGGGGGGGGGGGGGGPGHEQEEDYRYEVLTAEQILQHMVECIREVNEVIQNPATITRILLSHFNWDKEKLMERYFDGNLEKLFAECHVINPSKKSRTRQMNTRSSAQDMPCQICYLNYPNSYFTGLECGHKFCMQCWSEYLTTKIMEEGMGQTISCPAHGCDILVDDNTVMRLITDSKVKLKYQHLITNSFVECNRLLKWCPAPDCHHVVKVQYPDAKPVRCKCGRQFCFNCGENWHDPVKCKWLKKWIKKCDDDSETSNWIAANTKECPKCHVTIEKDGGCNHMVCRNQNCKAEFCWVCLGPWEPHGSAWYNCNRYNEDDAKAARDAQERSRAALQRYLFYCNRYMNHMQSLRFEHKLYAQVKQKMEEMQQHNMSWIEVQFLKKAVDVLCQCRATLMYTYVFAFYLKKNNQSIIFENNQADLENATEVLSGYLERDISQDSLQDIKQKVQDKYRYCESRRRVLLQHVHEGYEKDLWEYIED

Binder: B1
binding result (HHARI): no binding | binding result (PARKIN): no binding

Binder: B2
fold increase of affinity for α4 compared to the full length MID1 protein [1]: 10 fold

Binder: B3
ratio between phosphorylated and dephosphorylated hFused-form (western blot) [2]: 3 ratio | ratio between phosphorylated and dephosphorylated hFused-form (western blot, repeat) [2]: 3 ratio

Binder: B4
strength of interaction relative to full-length α4 [3]: > 10 times
